Reference: PMC6386500 (PLoS ONE, 2019)
One block for each molecule: values may come before it.

Columns and labels:
[1] = target: Citrate synthase from Metallosphaera sedula (Metallosphaera sedula); assay: SEC; HiPrep 26/60 Sephacryl S-300 HR column, buffer A (40 mM Tris-HCl, pH 8.0), 277 K; eluted at approximately 85 kDa
[2] = target: T1, MsCS (citrate synthase from Metallosphaera sedula) (Metallosphaera sedula, UniProt A4YGX6); assay: DTNB absorbance at […] nm, inhibition kinetics; type: biochemical
T1 construct: gene Msed_1522; C-terminal 6xHis tag (pET-30a, NdeI/XhoI), E. coli BL21(DE3)-T1R; homodimer about 85 kDa; modelled domains Met1-Arg370; His214, His253, Asp307 catalytic

purified protein [3] = substrate: O=C(O)CC(=O)C(=O)O; assay: purified protein; type: biochemical, Metallosphaera sedula; details: 0.5 mM acetyl-CoA, 100 mM potassium phosphate pH 8.0, 150 mM NaCl, 50 uM DTNB, 298 K, no inhibitor, 25.0 °C
purified protein [4] = substrate: CC(=O)SCCNC(=O)CCNC(=O)[C@H](O)C(C)(C)COP(=O)(O)OP(=O)(O)OC[C@H]1O[C@@H](n2cnc3c(N)ncnc32)[C@H](O)[C@@H]1OP(=O)(O)O; assay: purified protein; type: biochemical, Metallosphaera sedula; details: 100 mM potassium phosphate pH 8.0, 150 mM NaCl, 50 uM DTNB, 298 K, oxaloacetate concentration not stated, no inhibitor, 25.0 °C

stoichiometry N [1]: 2
Molecule: Citrate synthase from Metallosphaera sedula (enzyme)

Ki [2]: 4.41 mM
Molecule: NC(=O)C1=CN([C@@H]2O[C@H](COP(=O)(O)OP(=O)(O)OC[C@H]3O[C@@H](n4cnc5c(N)ncnc54)[C@H](O)[C@@H]3O)[C@@H](O)[C@H]2O)C=CC1 [NADH]

Continued, molecule first:

Molecule: Nc1ncnc2c1ncn2[C@@H]1O[C@H](COP(=O)(O)OP(=O)(O)OP(=O)(O)O)[C@@H](O)[C@H]1O [ATP]
Ki [2]: 4.34 mM

B1: MsCS (citrate synthase from Metallosphaera sedula) (Metallosphaera sedula DSM 5348) (protein)
chain: MELRKGLEDIAIKETSITYIDGELGRLYYRGYSIFDLASFSNFEEVAYLLWYGKLPTRHELDDFKSRLAEERSISEDISTFVKRTAKFGNPMDILRTTVSMMGLEDRSEGDLIGKAIKMTAKIPTIISLIQRTRRNQEFVEPDPSLSHSENFLYMIRGERPSPSDTRVLDVSLMLHMDHEMNASTMACLVVASTLSDIYSSVVAGISALKGPLHGGANSEALKQFMEIETPDNVEKYVMNKLSSGQRLMGFGHRIYKTMDPRAKILKEYANQLSKNEEIKRLFEIANRVEEIGIKILGKRGIYPNVDFYSGLVFYAMGFDPDLFPTIFASARVIGWTAHVDEYLKDNKLIRPKAIYVGDLGKRYVPIEER
notes: C-terminal 6xHis tag (pET-30a, NdeI/XhoI), E. coli BL21(DE3)-T1R; homodimer about 85 kDa; modelled domains Met1-Arg370; His214, His253, Asp307 catalytic
Km (purified protein [3]): 41.4 µM
kcat (purified protein [3]): 7.62 s⁻¹
Km (purified protein [4]): 16.5 µM
kcat (purified protein [4]): 8.56 s⁻¹
kcat/Km (purified protein [4]): 519000 M⁻¹ s⁻¹
